Data on two molecules can be found in patent publication KR20190132616A (dated 2019).

Assay [1] deals with Mutant Ang2 Y460 (alanine), FLAG-tagged (human) (UniProt O15123). As to the kind of experiment: ELISA, antibody coated (1000nM), FLAG-Ang2 mutant 250ng, anti-FLAG-HRP, OD450 against native Ang2.
The target of assay [2] is Mutant Ang2 P419 (alanine), FLAG-tagged (human) (UniProt O15123). Described as above.
For assay [3], the target named is Mutant Ang2 N421 (alanine), FLAG-tagged (human) (UniProt O15123). The description is as above.
Assay [4] deals with Mutant Ang2 A449 (alanine), FLAG-tagged (human) (UniProt O15123). Described as above.
The target of assay [5] is Mutant Ang2 F469 (alanine), FLAG-tagged (human) (UniProt O15123). The assay is described as above.
Assay [6] concerns the target Mutant Ang2 I434 (alanine), FLAG-tagged (human) (UniProt O15123). Described as above.
Assay [7] has as its target Mutant Ang2 Q418 (alanine), FLAG-tagged (human) (UniProt O15123). The assay is described as above.
For assay [8], the target named is Mutant Ang2 D448 (alanine), FLAG-tagged (human) (UniProt O15123). Described as above.
Assay [9] deals with Mutant Ang2 P452 (alanine), FLAG-tagged (human) (UniProt O15123). The description is as above.
The target in assay [10] is Mutant Ang2 S417 (alanine), FLAG-tagged (human) (UniProt O15123). The assay is described as above.
Assay [11] addresses Mutant Ang2 K468 (alanine), FLAG-tagged (human) (UniProt O15123). Described as above.
For assay [12], the target named is Mutant Ang2 N467 (alanine), FLAG-tagged (human) (UniProt O15123). The description is as above.
The target in assay [13] is T1, 재조합 hAng-2 (C-His, R&D Systems) (human, UniProt O15123 19-496).
T1 construct: Bought protein; also called 인간 Ang-2 단백질
T1 sequence: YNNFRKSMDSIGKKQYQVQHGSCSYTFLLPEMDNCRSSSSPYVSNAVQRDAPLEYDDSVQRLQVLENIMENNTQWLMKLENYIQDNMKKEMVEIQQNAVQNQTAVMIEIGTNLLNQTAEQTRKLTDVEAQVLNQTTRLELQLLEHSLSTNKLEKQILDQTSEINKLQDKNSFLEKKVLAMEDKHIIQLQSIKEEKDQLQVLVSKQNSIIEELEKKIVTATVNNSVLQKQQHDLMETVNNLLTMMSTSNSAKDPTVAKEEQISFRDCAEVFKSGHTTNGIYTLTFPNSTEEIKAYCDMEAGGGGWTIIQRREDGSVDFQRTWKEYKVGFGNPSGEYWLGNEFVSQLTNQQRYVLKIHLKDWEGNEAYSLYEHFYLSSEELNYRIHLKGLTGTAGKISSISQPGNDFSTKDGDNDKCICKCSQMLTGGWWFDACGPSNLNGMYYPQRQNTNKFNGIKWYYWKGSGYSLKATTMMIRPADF
Put plainly: SPR, BIAcore T100; hAng-2 (C-His) captured by anti-His antibody on CM5 chip, antibody flowed from 100 nM in 2-fold dilutions.

The next assay deals with T2, hTie2-Fc (R&D Systems) (human, UniProt Q02763 23-745).
T2 construct: Bought fusion protein, coated on the plate; also called hTie-2/Fc 융합 단백질; not shown: Fc of human IgG1
Put plainly: complex ELISA: Tie2-Fc coated, Ang2 0.25 ug/ml and 10D6 2 ug/ml added, anti-mouse IgG-HRP.

T2 sequence (Q02763 23-745 limits assumed): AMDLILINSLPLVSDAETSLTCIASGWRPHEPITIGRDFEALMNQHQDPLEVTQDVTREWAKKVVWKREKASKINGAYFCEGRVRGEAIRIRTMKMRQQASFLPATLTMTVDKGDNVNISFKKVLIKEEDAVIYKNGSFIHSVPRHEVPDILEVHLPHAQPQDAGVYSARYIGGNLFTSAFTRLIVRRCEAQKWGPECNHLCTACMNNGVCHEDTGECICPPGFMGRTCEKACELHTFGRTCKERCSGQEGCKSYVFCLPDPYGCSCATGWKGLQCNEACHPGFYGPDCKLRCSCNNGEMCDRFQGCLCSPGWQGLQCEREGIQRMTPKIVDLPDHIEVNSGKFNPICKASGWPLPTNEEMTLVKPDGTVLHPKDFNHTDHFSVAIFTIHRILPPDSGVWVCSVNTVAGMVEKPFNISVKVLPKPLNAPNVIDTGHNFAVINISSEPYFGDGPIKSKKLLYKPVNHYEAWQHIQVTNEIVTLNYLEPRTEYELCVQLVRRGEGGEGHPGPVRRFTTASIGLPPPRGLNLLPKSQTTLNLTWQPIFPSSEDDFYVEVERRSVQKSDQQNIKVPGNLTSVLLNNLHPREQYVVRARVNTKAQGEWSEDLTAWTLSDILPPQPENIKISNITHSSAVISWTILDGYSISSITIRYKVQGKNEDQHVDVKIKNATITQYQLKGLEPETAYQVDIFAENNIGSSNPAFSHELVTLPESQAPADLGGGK

B1: SAIT-ANG2-AB-m10D6 (antibody, V domains shown)
VH: DVQLQESGPGLVKPSQSLSLTCTVTGYSITSDYAWNWIRQFPGNKLEWMGYINYSGNTDYNPSLKSRSSITRDTSKNQFFLQLNSVTTGDTATYYCARGNFEGAMDYWGQGTSVTVSS
VL: SIVMTQTPKFLLVSAGDRVTITCKASQSVSNDVAWYQQKPGQSPKLLIYYASNRYPGVPDRFTGSGYGTDFTFTISTVQAEDLAVYFCQQDYSSPWTFGGGTKLEIK
notes: also called 10D6 항체; 10D6 anti-Ang2 항체
As to B1, the native Ang2와의 결합력에 대한 Mutant Ang2 와의 결합력(%) in [1] was 103%; in assay [2] it was 41.1%; in [3], 109%; in assay [4] it was 97.9%; in assay [5] it was 109%; in assay [6], 109%. In addition, the native Ang2와의 결합력에 대한 Mutant Ang2 와의 결합력(%) turned out to be 38.9% in assay [7]; 105% in assay [8]; 102% in [9]; 101% in [10]; 110% in assay [11]; 107% in assay [12]. In assay [13], this molecule returned a Kd of 8 nM.

B2: Ang2 단백질(R&D systems) (ligand)
chain: YNNFRKSMDSIGKKQYQVQHGSCSYTFLLPEMDNCRSSSSPYVSNAVQRDAPLEYDDSVQRLQVLENIMENNTQWLMKLENYIQDNMKKEMVEIQQNAVQNQTAVMIEIGTNLLNQTAEQTRKLTDVEAQVLNQTTRLELQLLEHSLSTNKLEKQILDQTSEINKLQDKNSFLEKKVLAMEDKHIIQLQSIKEEKDQLQVLVSKQNSIIEELEKKIVTATVNNSVLQKQQHDLMETVNNLLTMMSTSNSAKDPTVAKEEQISFRDCAEVFKSGHTTNGIYTLTFPNSTEEIKAYCDMEAGGGGWTIIQRREDGSVDFQRTWKEYKVGFGNPSGEYWLGNEFVSQLTNQQRYVLKIHLKDWEGNEAYSLYEHFYLSSEELNYRIHLKGLTGTAGKISSISQPGNDFSTKDGDNDKCICKCSQMLTGGWWFDACGPSNLNGMYYPQRQNTNKFNGIKWYYWKGSGYSLKATTMMIRPADF
notes: also called 인간 Ang2 단백질 (R&D systems; 623-AN-025/CF)
On to B2, for which, in the assay with hTie2-Fc (R&D Systems), the binding result was “binds”.
